Experimental data reported in paper PMC10626418.
Non-standard residues stand in square brackets, D forms with d. Groups on a side chain read outwards from the residue. Primed or numbered codes have the meaning given here. No end group written: not given here. *: point of attachment. Biotin = O=C1N[C@H]2[C@H](CS[C@H]2CCCCC(=O)*)N1; PEG2′ = not defined here

Biological target: I-E^k (murine MHC class II molecule, surface-resident on BMDCs and B-cells) (mouse (endogenous in BMDCs and B-cells of B10.A mice))
Test: flow cytometry on cells; B-cells and BMDCs pulsed with 25 and 50 uM MCC-PEG2-biotin for up to 36 h (with LPS), stained with saturating mSav-AF647 or 14.4.4 scFV-AF647 (10 ug/ml); ratio of the MFIs

- proportion of surface-resident I-E^k loaded with the peptide: < 17%
B1: C-terminally biotinylated MCC peptide 88-103 derivative (MCC-PEG2-biotin) (peptide)
peptide: ANERADLIAYLKQATK[dS][dS][dC]([maleimide-PEG2′-Biotin])
